Reference: US20240279645A1, “METHODS AND CO[…] TO A MODIFIED METHYLTRANSFERASE” (priority 2021, published 2024)
“And” between values parts separate entries of the source, which are not always exact repeats. Equal values may be shown once.

Legend:
[1] = tested on: THP sensor (THP4.2); experiment: Response of the THP reporter plasmid (pThpR) to alkaloids; format: cell-based; conditions: pThpR reporter fluorescence (FIG. 2b)
[2] = pThpR reporter fluorescence of cells expressing a methyltransferase cultured with norlaudanosoline; format: cell-based, E. coli; conditions: cultured with norlaudanosoline (100 uM, 1 mg/mL ascorbic acid, 18 hours, 30° C., FIG. 3)
Description: Cells expressing either an empty plasmid (TAA) or a BIA methyltransferase were co-transformed with pThpR and grown in the presence of 100 uM of norlaudanosoline and 1 mg/mL ascorbic acid for 18 hours at 30° C. and culture fluorescence was subsequently measured. Measurements were performed in biological triplicate.
(a) Genetic scheme for O-methyltransferase (OMT) evolution. A plasmid expressing the OMT variant (blue) is co-transformed with a plasmid expressing GFP regulated by a tetrahydropapaverine-responsive biosensor (THP4.1). OMT libraries are plated with norlaudanosoline (NOR) and highly fluorescent colonies are picked, characterized, and the top variant is used for the following round of evolution. (b) Homology structure of the template OMT (GfOMT1) with mutations in evolved variants shown in orange and labelled. The substrate NOR and cofactor S-adenosyl-methionine are shown in pink and green respectively. (c) Fluorescence response of the THP4.1 reporter plasmid cultured with either 0, 10, or 100 uM of (NOR) and an empty plasmid (TAA), GfOMT1 (WT) or evolved OMT variants. (d) Representative ion extracted chromatograms of strains expressing engineered OMT variants, or controls, grown in the presence of 10 uM NOR. All LC-MS chromatograms were selected for the theoretical m/z values and retention times of the respective compounds of interest. […]

[3] = LC/MS analysis of enzymatic reactions of OMT variants with norlaudanosoline (extracted ion chromatogram areas); format: cell-based, E. coli; conditions: for Observed EIC Areas 3OH (302.1387 m/z): 6-O-Methylnorlaudanosoline, retention time 2.85 min; for Observed EIC Areas 3OH (302.1387 m/z) / Observed EIC Areas 1OH (330.1700 m/z) / Observed EIC Areas NOR-4OH (288.1230 m/z) / Observed EIC Areas NRT-2OH (316.1543 m/z) / Observed EIC Areas THP-0OH (344.1856 m/z): strains grown in the presence of 10 uM NOR, single replicates of a biological triplicate; for Observed EIC Areas 1OH (330.1700 m/z): norlaudanine, retention time 3.41 min; for Observed EIC Areas NOR-4OH (288.1230 m/z): norlaudanosoline, retention time 2.46 min; for Observed EIC Areas NRT-2OH (316.1543 m/z): norreticuline, retention time 3.14 min; for Observed EIC Areas THP-0OH (344.1856 m/z): tetrahydropapaverine, retention time 3.58 min
Description: (a) Genetic scheme for O-methyltransferase (OMT) evolution. A plasmid expressing the OMT variant (blue) is co-transformed with a plasmid expressing GFP regulated by a tetrahydropapaverine-responsive biosensor (THP4.1). OMT libraries are plated with norlaudanosoline (NOR) and highly fluorescent colonies are picked, characterized, and the top variant is used for the following round of evolution. (b) Homology structure of the template OMT (GfOMT1) with mutations in evolved variants shown in orange and labelled. The substrate NOR and cofactor S-adenosyl-methionine are shown in pink and green respectively. (c) Fluorescence response of the THP4.1 reporter plasmid cultured with either 0, 10, or 100 uM of (NOR) and an empty plasmid (TAA), GfOMT1 (WT) or evolved OMT variants. (d) Representative ion extracted chromatograms of strains expressing engineered OMT variants, or controls, grown in the presence of 10 uM NOR. All LC-MS chromatograms were selected for the theoretical m/z values and retention times of the respective compounds of interest.
Cells expressing an empty plasmid (TAA) or an OMT variant were cultured in the presence of 10 uM NOR and 1 mg/mL ascorbic acid for 18 hours at 30 C and THP was quantified with LC/MS by fitting to a standard curve (R2=0.9999). Measurements were performed in biological triplicate. […]
The top two rows indicate the ml/z ratio and retention time for compounds of interest (norlaudanosoline (NOR-4OH), 6-O-Methylnorlaudanosoline (3OH), norreticuline (NRT-2OH), norlaudanine (1OH), and tetrahydropapaverine (THP-0OH). All sample measurements were performed in biological triplicate.

Molecule	responsiveness of the THP sensor to the alkaloid [1]	fluorescent signal in E. coli bearing pThpR, panel of methyltransferases [2]	Observed EIC Areas 3OH (302.1387 m/z) [3]	Observed EIC Areas 1OH (330.1700 m/z) [3]	Observed EIC Areas NOR-4OH (288.1230 m/z) [3]	Observed EIC Areas NRT-2OH (316.1543 m/z) [3]	Observed EIC Areas THP-0OH (344.1856 m/z) [3]	THP production, selectivity and efficiency ([3]; LC/MS, 10 uM NOR, 18 hours at 30 C (FIG. 4d, FIG. 7))
COc1ccc(C[C@@H]2NCCc3cc(OC)c(O)cc32)cc1O [norreticuline]	somewhat responsive							
Oc1ccc(CC2NCCc3cc(O)c(O)cc32)cc1O (stereo not drawn) [unmethylated substrate, norlaudanosoline]	not							
WT: wild-type O-methyltransferase GfOMT1 from Glaucium flavum, template for evolution (protein) MGVSDNKPESQEVDIKAQAHLWNIIYGFADSLVLRCAVEIGIADIIKSNNGSISVTELASKLPITNVNSDNLYRVLRYLVHMGILKEVSDSNEVKLYSLQPVATLLLRDAERSMVPIILGMTQKDFMIPWHFMKEGLGNDTTAFEKGMGMTIWQYLEGHPEQSNLFNEGMAGETRLLTKSLIDGCRDTFEGLTSLCDVGGGNGTTIKGIYDAFPQIKCSVYDLPHVIASSPEHPNIERIPGDMFKSVPSAQAILLKLILHDWTDEECVNILIKCREAVPKDTGKVIIVDVALEEESQHELTKTRLILDIDMLVNTGGRERSEDDWEKLLKRAGFRGHKIRHIAAIQSVIEAFP		produced the highest fluorescent signal	838,007.19 and 678,233.01 and 956,624.78	0.00	292,886.91 and 183,019.07 and 553,463.54	5,016,094.31 and 4,455,448.19 and 5,512,157.20	715,848.03 and 726,021.76 and 724,935.11	
Gen2: evolved GfOMT1 variant, second round, in which the W22L mutation occurred (protein) MGVSDNKPESQEVDIKAQAHLLNIIYGFADSLVLRCAVEIGIADIIKSNNGSISVTELASKLPITNVNSDNLYRVLRYLVHMGILKEVSDSNEVKLYSLQPVATLLLRDAERSMVPIILGMTQKDFMIPWHFMKEGLGNDTTAFERGMGMTIWQYLEGHPEQSNLFNEGMAGETRLLAKSLIDGCRDTFEGLTSLCDVGGGNGTTIKGIYDAFPQIKCSVYDLPHVIASSPEHPNIERIPGDMFKSVPSAQAILLKLILHDWTDEECVNILIKCREAVPKDTGKVIIVDVALEEESQHELTKTRLILDIDMLVNTGGRERSEDDWEKLLKRAGFRGHKIRHIAAIQSVIEAFP			730,076.27 and 485,465.06 and 582,826.88	4,013,082.04 and 4,748,195.68 and 4,367,581.54	641,245.71 and 251,793.95 and 457,481.05	2,721,068.90 and 1,499,029.94 and 2,227,163.03	768,144.56 and 825,357.07 and 796,201.94	
Gen1: evolved GfOMT1 O-methyltransferase variant, first round of evolution (protein) MGVSDNKPESQEVDIKAQAHLWNIIYGFADSLVLRCAVEIGIADIIKSNNGSISVTELASKLPITNVNSDNLYRVLRYLVHMGILKEVSDSNEVKLYSLQPVATLLLRDAERSMVPIILGMTQKDFMIPWHFMKEGLGNDTTAFERGMGMTIWQYLEGHPEQSNLFNEGMAGETRLLAKSLIDGCRDTFEGLTSLCDVGGGNGTTIKGIYDAFPQIKCSVYDLPHVIASSPEHPNIERIPGDMFKSVPSAQAILLKLILHDWTDEECVNILIKCREAVPKDTGKVIIVDVALEEESQHELTKTRLILDIDMLVNTGGRERSEDDWEKLLKRAGFRGHKIRHIAAIQSVIEAFP			262,284.74 and 357,195.05 and 194,528.60	0.00	127,968.53 and 189,597.68 and 69,624.59	5,028,466.49 and 5,328,381.15 and 4,578,048.19	662,206.48 and 685,462.09 and 627,833.84	
Gen4: evolved GfOMT1 O-methyltransferase variant, fourth round of evolution (protein) MGVSDNKPESQEVDIKAQAHLLNIIYGFADSLVLRCAVEIGIADIIKSNNGSISVTELASKLPITNVNSDNLYRVLRYLVHMGILKEVSDSNEVKLYSLQPVATLLLRDAERSMVPIILGMTQKDFMIPWHFMKEGLGNDTTAFERGMGMTIWQYLEGHPEQSNLFNEGMAGETRLMAKSLIDGCRDTFEGLTSLCDVGGGNGTTIKGIYDAFPQIKCSVYDLPHVIASSPEHPNIERIPGDMFKSVPSAQAILLKLVLHDWTDEECVNILIKCREAVPKDTGKVIIVDVALEEESQHELTKTRLILDIDMLVNTGGRERSEDDWEKLLKRAGFRGHKIRHIAAIQSVIEAFP			0.00	1,994,412.63 and 1,353,523.79 and 2,054,059.80	242,876.32 and 139,427.97 and 249,690.78	639,571.41 and 488,824.56 and 684,700.15	10,694,641.10 and 11,406,507.42 and 10,304,271.54	produced THP more selectively and efficiently than GEN5
